Article PMC2528291 (Journal of molecular biology, 2001)
Where two headings read alike, the source gives them in different places.

Legend:
Assay in all cases: SEC
[1] = target: flagellin (FliC) of S. typhimurium SJW1103 (S. typhimurium (endogenous in SJW1103)) (UniProt P06179)
SEC [2] = target: the molecule itself
SEC [3] = target: the molecule itself; remark: listed apart in the source

Sequence of flagellin (FliC) of S. typhimurium SJW1103 (S. typhimurium (endogenous in SJW1103)) (P06179 whole entry): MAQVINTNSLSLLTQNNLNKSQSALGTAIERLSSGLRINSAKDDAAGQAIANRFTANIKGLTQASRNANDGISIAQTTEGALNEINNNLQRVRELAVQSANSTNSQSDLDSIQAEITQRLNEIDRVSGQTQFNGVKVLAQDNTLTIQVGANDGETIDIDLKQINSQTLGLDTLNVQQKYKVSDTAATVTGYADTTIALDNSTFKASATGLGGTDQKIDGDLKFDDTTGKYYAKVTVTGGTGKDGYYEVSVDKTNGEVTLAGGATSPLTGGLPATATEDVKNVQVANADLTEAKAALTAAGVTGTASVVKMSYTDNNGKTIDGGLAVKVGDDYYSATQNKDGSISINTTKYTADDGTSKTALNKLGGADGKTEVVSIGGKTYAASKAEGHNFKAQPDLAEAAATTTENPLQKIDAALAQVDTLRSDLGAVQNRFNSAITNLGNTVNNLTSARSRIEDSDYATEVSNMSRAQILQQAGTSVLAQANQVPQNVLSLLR

## His6-FliS (from pET-FliS) (from UniProt P26609 1-135) (natural protein)
[1]
  stoichiometry N (FliS per FliC): 2

B1: FliS (native, cytosolic, of S. typhimurium SJW1103) (natural protein, S. typhimurium (endogenous in SJW1103), UniProt P26609 1-135, looked up)
chain: MYTASGIKAYAQVSVESAVMSASPHQLIEMLFDGANSALVRARLFLEQGDVVAKGEALSKAINIIDNGLKAGLDQEKGGEIATNLSELYDYMIRRLLQANLRNDAQAIEEVEGLLSNIAEAWKQISPKASFQESR
SEC [2]
  stoichiometry N: 2

B2: His6-FliS (from pET-FliS) (natural protein, S. typhimurium, UniProt P26609 1-135, looked up)
chain: MYTASGIKAYAQVSVESAVMSASPHQLIEMLFDGANSALVRARLFLEQGDVVAKGEALSKAINIIDNGLKAGLDQEKGGEIATNLSELYDYMIRRLLQANLRNDAQAIEEVEGLLSNIAEAWKQISPKASFQESR
modifications: [35S]methionine label (in the affinity blots only)
SEC [3]
  stoichiometry N: 2
